IntAct's records for PubMed 31515488

B1: Tyrosine-protein phosphatase non-receptor type 9 (Homo sapiens), P43378 (parent)
chain: MEPATAPRPDMAPELTPEEEQATKQFLEEINKWTVQYNVSPLSWNVAVKFLMARKFDVLRAIELFHSYRETRRKEGIVKLKPHEEPLRSEILSGKFTILNVRDPTGASIALFTARLHHPHKSVQHVVLQALFYLLDRAVDSFETQRNGLVFIYDMCGSNYANFELDLGKKVLNLLKGAFPARLKKVLIVGAPIWFRVPYSIISLLLKDKVRERIQILKTSEVTQHLPRECLPENLGGYVKIDLATWNFQFLPQVNGHPDPFDEIILFSLPPALDWDSVHVPGPHAMTIQELVDYVNARQKQGIYEEYEDIRRENPVGTFHCSMSPGNLEKNRYGDVPCLDQTRVKLTKRSGHTQTDYINASFMDGYKQKNAYIGTQGPLENTYRDFWLMVWEQKVLVIVMTTRFEEGGRRKCGQYWPLEKDSRIRFGFLTVTNLGVENMNHYKKTTLEIHNTEERQKRQVTHFQFLSWPDYGVPSSAASLIDFLRVVRNQQSLAVSNMGARSKGQCPEPPIVVHCSAGIGRTGTFCSLDICLAQLEELGTLNVFQTVSRMRTQRAFSIQTPEQYYFCYKAILEFAEKEGMVSSGQNLLAVESQ
partner: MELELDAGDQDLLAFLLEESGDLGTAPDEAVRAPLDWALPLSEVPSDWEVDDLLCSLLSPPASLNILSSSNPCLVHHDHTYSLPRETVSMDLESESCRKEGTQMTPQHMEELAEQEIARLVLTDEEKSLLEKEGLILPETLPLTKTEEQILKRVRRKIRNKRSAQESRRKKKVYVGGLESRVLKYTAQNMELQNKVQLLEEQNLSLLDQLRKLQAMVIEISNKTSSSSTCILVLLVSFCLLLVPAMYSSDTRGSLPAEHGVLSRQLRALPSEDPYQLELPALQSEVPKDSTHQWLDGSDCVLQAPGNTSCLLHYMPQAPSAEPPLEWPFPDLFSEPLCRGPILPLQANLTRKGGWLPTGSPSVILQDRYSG
B2: Paraneoplastic antigen-like protein 5 (Homo sapiens), Q96PV4 (parent)
chain: MALTLLEDWCKGMDMDPRKALLIVGIPMECSEVEIQDTVKAGLQPLCAYRVLGRMFRREDNAKAVFIELADTVNYTTLPSHIPGKGGSWEVVVKPRNPDDEFLSRLNYFLKDEGRSMTDVARALGCCSLPAESLDAEVMPQVRSPPLEPPKESMWYRKLKVFSGTASPSPGEETFEDWLEQVTEIMPIWQVSEVEKRRRLLESLRGPALSIMRVLQANNDSITVEQCLDALKQIFGDKEDFRASQFRFLQTSPKIGEKVSTFLLRLEPLLQKAVHKSPLSVRSTDMIRLKHLLARVAMTPALRGKLELLDQRGCPPNFLELMKLIRDEEEWENTEAVMKNKEKPSGRGRGASGRQARAEASVSAPQATVQARSFSDSSPQTIQGGLPPLVKRRRLLGSESTRGEDHGQATYPKAENQTPGREGPQAAGEELGNEAGAGAMSHPKPWET
B3: Zinc finger protein 165 (Homo sapiens), P49910 (parent)
chain: MATEPKKAAAQNSPEDEGLLIVKIEEEEFIHGQDTCLQRSELLKQELCRQLFRQFCYQDSPGPREALSRLRELCCQWLKPEIHTKEQILELLVLEQFLTILPGDLQAWVHEHYPESGEEAVTILEDLERGTDEAVLQVQAHEHGQEIFQKKVSPPGPALNVKLQPVETKAHFDSSEPQLLWDCDNESENSRSMPKLEIFEKIESQRIISGRISGYISEASGESQDICKSAGRVKRQWEKESGESQRLSSAQDEGFGKILTHKNTVRGEIISHDGCERRLNLNSNEFTHQKSCKHGTCDQSFKWNSDFINHQIIYAGEKNHQYGKSFKSPKLAKHAAVFSGDKTHQCNECGKAFRHSSKLARHQRIHTGERCYECNECGKSFAESSDLTRHRRIHTGERPFGCKECGRAFNLNSHLIRHQRIHTREKPYECSECGKTFRVSSHLIRHFRIHTGEKPYECSECGRAFSQSSNLSQHQRIHMRENLLM
partner: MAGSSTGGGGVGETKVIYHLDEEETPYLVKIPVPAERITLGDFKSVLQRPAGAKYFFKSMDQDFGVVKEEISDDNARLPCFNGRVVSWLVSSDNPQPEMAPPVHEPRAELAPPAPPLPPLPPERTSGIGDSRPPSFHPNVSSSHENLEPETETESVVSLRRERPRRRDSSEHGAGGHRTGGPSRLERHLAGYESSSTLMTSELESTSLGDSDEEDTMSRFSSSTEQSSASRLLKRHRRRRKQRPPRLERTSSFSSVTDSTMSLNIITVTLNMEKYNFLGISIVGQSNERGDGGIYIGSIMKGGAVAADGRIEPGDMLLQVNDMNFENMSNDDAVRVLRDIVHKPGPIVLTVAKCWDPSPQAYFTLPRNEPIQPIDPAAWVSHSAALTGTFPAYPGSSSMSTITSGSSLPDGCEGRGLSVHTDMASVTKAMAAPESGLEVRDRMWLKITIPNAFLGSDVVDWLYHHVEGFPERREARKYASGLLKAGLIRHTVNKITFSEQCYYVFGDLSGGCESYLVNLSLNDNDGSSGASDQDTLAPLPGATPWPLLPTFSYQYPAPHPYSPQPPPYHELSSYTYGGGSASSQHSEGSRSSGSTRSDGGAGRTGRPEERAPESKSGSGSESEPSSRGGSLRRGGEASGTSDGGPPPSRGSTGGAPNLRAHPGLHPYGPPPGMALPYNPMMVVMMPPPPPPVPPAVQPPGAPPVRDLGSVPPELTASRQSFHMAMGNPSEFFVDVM
B4: Keratin-associated protein 3-2 (Homo sapiens), Q9BYR7 (parent)
chain: MDCCASRSCSVPTGPATTICSSDKSCRCGVCLPSTCPHTVWLLEPICCDNCPPPCHIPQPCVPTCFLLNSCQPTPGLETLNLTTFTQPCCEPCLPRGC

Variants of: B1
Settings: with creb3_human CREB3, O43889

effect of a mutation on the interaction	Variant
with no effect	R72Q

Variants of: B2
Settings: with arpc4_human ARPC4, P59998

Variant	effect of a mutation on the interaction
V274M	with no effect
T261A	with no effect

Now from value to variant:

effect of a mutation on the interaction	Variant
with no effect	R312Q
disrupting interaction strength	L21Q

Variants of: B2
Settings: with zfy26_human ZFYVE26, Q68DK2
zfy26_human ZFYVE26, Q68DK2, sequence (Q68DK2 whole entry): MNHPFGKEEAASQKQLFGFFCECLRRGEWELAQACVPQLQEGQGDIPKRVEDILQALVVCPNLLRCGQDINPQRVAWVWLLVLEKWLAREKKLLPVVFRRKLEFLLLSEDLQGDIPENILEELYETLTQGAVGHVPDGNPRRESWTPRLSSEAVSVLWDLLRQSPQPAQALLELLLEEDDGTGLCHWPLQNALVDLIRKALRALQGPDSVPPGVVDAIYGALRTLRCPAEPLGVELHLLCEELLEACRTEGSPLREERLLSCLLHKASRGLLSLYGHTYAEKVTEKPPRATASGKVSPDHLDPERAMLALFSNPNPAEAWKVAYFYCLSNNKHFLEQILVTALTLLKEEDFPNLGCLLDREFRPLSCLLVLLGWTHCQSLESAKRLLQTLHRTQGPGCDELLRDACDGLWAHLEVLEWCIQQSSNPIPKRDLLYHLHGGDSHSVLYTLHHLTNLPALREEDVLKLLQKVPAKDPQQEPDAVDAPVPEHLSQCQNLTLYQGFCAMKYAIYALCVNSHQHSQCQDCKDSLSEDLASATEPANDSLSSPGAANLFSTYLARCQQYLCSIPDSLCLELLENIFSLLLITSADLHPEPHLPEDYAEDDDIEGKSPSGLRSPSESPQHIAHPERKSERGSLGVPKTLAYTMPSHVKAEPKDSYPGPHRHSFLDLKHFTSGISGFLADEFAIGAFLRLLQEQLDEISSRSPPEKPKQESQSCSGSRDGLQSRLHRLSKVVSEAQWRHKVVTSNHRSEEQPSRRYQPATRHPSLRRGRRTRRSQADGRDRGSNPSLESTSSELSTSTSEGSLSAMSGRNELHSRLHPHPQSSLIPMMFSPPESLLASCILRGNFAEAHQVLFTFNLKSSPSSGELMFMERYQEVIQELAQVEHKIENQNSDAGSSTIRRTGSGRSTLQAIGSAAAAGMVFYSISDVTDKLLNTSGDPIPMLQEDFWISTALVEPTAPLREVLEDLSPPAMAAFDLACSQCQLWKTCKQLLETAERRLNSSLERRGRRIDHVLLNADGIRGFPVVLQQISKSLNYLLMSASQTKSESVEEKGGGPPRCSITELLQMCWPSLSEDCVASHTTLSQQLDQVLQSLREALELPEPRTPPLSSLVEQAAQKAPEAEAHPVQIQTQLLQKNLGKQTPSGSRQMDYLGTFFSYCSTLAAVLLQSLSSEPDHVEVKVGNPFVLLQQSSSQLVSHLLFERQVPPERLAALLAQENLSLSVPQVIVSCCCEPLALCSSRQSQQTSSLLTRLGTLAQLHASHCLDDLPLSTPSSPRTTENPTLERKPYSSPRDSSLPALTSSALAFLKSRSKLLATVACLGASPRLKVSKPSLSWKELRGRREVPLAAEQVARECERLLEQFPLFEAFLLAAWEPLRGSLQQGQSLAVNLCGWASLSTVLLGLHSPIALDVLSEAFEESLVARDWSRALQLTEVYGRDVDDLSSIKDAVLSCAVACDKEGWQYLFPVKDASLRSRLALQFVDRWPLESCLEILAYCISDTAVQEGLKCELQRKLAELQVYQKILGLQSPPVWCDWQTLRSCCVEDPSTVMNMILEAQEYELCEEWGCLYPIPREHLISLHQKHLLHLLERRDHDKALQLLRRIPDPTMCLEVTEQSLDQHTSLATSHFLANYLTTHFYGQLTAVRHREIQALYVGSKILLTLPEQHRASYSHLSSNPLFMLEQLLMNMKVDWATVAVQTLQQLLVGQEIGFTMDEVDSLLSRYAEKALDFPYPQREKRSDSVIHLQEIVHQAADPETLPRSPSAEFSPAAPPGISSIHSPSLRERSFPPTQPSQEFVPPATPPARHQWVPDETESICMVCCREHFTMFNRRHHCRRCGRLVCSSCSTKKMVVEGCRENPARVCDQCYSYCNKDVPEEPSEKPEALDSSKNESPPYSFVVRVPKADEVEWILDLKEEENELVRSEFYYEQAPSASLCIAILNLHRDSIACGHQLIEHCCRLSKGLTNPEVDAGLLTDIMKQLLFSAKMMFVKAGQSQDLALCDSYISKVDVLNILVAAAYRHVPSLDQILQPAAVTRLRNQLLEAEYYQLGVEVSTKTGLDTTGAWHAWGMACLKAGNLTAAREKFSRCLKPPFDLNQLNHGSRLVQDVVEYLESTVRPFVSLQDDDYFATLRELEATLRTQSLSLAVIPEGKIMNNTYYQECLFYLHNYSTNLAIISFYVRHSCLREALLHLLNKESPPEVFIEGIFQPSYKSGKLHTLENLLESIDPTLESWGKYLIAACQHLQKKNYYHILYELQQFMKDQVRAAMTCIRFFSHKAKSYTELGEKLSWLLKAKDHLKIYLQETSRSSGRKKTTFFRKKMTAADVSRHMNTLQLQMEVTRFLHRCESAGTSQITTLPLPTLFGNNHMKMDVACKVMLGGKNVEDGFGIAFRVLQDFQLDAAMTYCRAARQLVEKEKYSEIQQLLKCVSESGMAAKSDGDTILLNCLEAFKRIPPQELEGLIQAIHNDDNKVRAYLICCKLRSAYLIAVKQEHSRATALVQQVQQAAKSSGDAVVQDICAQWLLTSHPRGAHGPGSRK

Variant	effect of a mutation on the interaction
V274M	with no effect
T261A	with no effect

Now from value to variant:

effect of a mutation on the interaction	Variant
with no effect	R312Q
disrupting interaction strength	L21Q

Variants of: B2
Settings: with ccnc_human CCNC

Variant	effect of a mutation on the interaction
V274M	with no effect
T261A	with no effect

Other lines, results leading:

effect of a mutation on the interaction	Variant
with no effect	R312Q
disrupting interaction strength	L21Q

Variants of: B2
Settings: with aapk1_human PRKAA1, Q13131
aapk1_human PRKAA1, Q13131, sequence (Q13131 whole entry, looked up): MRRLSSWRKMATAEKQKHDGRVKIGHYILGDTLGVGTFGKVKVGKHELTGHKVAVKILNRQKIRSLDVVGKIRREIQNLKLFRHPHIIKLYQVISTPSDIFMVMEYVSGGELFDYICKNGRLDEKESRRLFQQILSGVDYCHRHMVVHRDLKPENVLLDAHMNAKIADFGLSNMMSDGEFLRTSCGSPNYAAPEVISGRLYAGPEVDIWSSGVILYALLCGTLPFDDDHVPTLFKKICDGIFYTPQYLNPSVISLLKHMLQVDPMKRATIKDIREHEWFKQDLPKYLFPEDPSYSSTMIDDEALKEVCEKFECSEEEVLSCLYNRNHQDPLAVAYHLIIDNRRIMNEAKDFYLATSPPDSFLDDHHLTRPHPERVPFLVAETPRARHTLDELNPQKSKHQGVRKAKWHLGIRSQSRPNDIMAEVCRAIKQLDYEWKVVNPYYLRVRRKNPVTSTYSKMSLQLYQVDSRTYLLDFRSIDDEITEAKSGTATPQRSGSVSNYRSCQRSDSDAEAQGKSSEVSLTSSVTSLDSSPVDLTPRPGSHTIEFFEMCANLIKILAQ

Variant	effect of a mutation on the interaction
V274M	with no effect
T261A	with no effect

Second part, the variant after the results:

effect of a mutation on the interaction	Variant
with no effect	R312Q
disrupting interaction strength	L21Q

Variants of: B3
Settings: with dvl2_human DVL2, O14641

effect of a mutation on the interaction	Variant
with no effect	R69C
with no effect	N347Y

Variants of: B4
Settings: with yipf3_human YIPF3, Q9GZM5
yipf3_human YIPF3, Q9GZM5, sequence (Q9GZM5 whole entry): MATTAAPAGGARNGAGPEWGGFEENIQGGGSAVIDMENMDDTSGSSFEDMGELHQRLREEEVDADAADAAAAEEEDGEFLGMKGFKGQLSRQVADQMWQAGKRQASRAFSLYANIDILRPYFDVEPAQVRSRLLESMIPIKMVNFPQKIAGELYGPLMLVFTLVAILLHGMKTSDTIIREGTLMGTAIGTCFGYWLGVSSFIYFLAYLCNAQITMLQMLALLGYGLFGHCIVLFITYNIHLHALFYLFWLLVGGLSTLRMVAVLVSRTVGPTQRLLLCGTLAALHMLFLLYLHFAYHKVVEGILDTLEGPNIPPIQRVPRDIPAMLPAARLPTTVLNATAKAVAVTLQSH

effect of a mutation on the interaction	Variant
with no effect	R27C

Variants of: B4
Settings: with hxa1_human HOXA1, P49639
hxa1_human HOXA1, P49639, sequence (P49639 whole entry): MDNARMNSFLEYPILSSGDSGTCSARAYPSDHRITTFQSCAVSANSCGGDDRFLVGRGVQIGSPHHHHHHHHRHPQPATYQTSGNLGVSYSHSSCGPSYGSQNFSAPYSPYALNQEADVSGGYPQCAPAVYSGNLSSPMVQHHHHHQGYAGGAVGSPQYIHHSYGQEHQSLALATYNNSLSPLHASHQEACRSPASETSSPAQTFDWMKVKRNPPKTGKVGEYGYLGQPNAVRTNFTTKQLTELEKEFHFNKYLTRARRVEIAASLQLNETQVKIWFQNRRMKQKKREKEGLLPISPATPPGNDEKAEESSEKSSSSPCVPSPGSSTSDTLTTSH

effect of a mutation on the interaction	Variant
with no effect	R27C

Variants of: B4
Settings: with otx1_human OTX1, P32242
otx1_human OTX1, P32242, sequence (P32242 whole entry): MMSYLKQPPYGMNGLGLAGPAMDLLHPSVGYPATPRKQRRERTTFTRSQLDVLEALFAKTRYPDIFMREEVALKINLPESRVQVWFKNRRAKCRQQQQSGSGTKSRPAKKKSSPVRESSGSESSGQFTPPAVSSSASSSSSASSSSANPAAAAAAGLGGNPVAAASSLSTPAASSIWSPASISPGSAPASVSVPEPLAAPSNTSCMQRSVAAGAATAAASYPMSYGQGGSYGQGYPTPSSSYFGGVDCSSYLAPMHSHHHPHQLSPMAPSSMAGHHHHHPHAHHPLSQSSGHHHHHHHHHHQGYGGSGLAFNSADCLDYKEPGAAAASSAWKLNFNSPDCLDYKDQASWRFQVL

effect of a mutation on the interaction	Variant
with no effect	R27C
